This assay concerns the target T1, Sea3 (S. cerevisiae (endogenous in yeast …, UniProt Q03897 1-1148)).
T1 construct: Sea3, S. cerevisiae, endogenous subunit of the SEAC; Sea3^SIP (Sea3^Nter) lies in the wing, Sea3^SAP (Sea3^Cter) in the core; Native protein of the purified complex; two copies in the SEAC; source: endogenous, yeast cells expressing Sea4-TAP; in lysate and co-purified with Sea4-TAP (IgG Dynabeads, TEV elution)
T1 sequence (looked up): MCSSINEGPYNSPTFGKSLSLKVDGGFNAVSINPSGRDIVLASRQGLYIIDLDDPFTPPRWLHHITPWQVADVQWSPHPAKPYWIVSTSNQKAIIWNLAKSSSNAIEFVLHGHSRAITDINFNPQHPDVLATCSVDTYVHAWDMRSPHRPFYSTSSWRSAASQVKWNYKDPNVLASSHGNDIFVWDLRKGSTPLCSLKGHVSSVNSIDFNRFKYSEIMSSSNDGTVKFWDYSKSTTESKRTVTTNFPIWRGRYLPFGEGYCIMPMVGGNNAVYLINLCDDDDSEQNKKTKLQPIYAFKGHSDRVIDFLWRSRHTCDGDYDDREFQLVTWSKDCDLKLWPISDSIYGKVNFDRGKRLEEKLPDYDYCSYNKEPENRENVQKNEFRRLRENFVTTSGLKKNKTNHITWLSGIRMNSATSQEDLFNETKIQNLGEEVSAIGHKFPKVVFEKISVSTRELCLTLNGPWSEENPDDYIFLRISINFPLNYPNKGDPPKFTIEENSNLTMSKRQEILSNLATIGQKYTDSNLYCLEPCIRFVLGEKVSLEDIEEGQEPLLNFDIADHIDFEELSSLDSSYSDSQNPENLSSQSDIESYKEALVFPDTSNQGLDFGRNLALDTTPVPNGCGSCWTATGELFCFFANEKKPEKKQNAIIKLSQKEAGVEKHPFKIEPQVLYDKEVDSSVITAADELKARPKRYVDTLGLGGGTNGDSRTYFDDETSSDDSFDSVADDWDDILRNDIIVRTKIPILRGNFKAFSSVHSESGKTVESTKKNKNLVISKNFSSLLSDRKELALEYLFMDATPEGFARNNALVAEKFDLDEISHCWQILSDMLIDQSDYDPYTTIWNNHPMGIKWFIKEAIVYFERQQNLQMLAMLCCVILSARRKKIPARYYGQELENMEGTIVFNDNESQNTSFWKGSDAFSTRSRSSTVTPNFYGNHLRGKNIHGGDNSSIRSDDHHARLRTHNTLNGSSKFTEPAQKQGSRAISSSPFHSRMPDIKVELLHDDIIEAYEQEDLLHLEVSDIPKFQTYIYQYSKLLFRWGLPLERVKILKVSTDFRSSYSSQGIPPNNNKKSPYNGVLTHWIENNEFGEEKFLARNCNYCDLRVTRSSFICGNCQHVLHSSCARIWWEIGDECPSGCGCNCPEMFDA
Briefly: cryo-EM structure; endogenous SEAC purified from yeast via Sea4-TAP (IgG Dynabeads, TEV elution in 20 mM HEPES-NaOH pH 7.4, 300 mM NaCl, 2 mM DTT), on graphene-oxide-coated grids. To be noted: both partners purified.

The results in this text go back to article PMC9646525, “Cryo-EM structure of the SEA complex” (Nature, 2022).

B1: Seh1 (natural protein, UniProt P53011 1-349, looked up)
chain: MQPFDSGHDDLVHDVVYDFYGRHVATCSSDQHIKVFKLDKDTSNWELSDSWRAHDSSIVAIDWASPEYGRIIASASYDKTVKLWEEDPDQEECSGRRWNKLCTLNDSKGSLYSVKFAPAHLGLKLACLGNDGILRLYDALEPSDLRSWTLTSEMKVLSIPPANHLQSDFCLSWCPSRFSPEKLAVSALEQAIIYQRGKDGKLHVAAKLPGHKSLIRSISWAPSIGRWYQLIATGCKDGRIRIFKITEKLSPLASEESLTNSNMFDNSADVDMDAQGRSDSNTEEKAELQSNLQVELLSEHDDHNGEVWSVSWNLTGTILSSAGDDGKVRLWKATYSNEFKCMSVITAQQ
notes: Seh1, S. cerevisiae, endogenous subunit of the SEAC (SEACAT, core); Native protein of the purified complex; six copies in the SEAC; source: endogenous, yeast cells expressing Sea4-TAP; in lysate and co-purified with Sea4-TAP (IgG Dynabeads, TEV elution)
With B1, the binding result is “binds”.
